{
  "source": "paper PMC10384999",
  "target": "T1, ArcR (Staphylococcus aureus NCTC8325 (?)) (UniProt Q2FUY1)",
  "T1 sequence": "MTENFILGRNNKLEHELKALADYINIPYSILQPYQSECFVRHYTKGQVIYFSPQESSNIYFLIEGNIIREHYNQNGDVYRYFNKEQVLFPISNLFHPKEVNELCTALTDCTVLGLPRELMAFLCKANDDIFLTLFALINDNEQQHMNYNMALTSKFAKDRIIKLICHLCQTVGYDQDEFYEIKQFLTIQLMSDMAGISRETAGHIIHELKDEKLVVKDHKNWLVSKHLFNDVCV",
  "assay": "EMSA",
  "details": "25 mM HEPES, 300 mM NaCl, 1 mM DTT, 10% glycerol, pH 7.8; 30 min at room temperature ([…]) or 37 °C ([…]",
  "data": [
    {"sequence": "ACCTACCTTTCGTTAGTTAGGTTGTAAGCCATATGGTAATTGATAGTATTTTAATTTGCAATAGATTGTTGTTATAATTAAACGGAAATATTTGTAATTGCAACTTAATTTTCCTGTAACATAGTGTGATTAATTTTCAGTAGGGGGTTATAAAAATTGAAGGATAAGATTATTGATAACGCAATAACCTTATTTTCAGAGAAGGGGTATGACGGTACAACACTTGATGATATAGCT (double strand) [ica promoter (icaA) fragment]", "values": [
      {"measurement": "binding", "result": "binds"}
    ]},
    {"sequence": "AGCGCGTGTTGTTATGTCGCGAATGGTAATCTTTTCTAAATCTTTTTCTTGTAGTAATTTAGTGAACGCTTGTTTAATGGAGGACTTTGTCTTTCTAATTCGCCTATCTTCTTTCAAAAATAAATCAACCTCCTTGTGTTATTGAACAATGTGGGTGTATTTGTCTATTAATGAACGTATTGATGAACATTGTGTATTGTTTATTCCCACTTACATATTATAATAGACAACATGCGAAATATTCAACACATTGTCTAATAAGGAGGT (double strand) [tetA promoter fragment]", "values": [
      {"measurement": "binding", "result": "no binding"}
    ]},
    {"sequence": "TCAACTTTGACTAACCCTCGAAATTGAAATGCTTCCTTTCAAATTTTAAATAAAAGTTAAAAACATATTCTTAAAATAATCACTCATCATCACTCAGTAATTTATCAGTTGCTACATTAAATATACTAATATAAACGATTATAAATATTTGATATGTCTCAACTGCAATATTCTAAATTGACATATTGATTATTGTTTCCTCAAATCGTTTTAAAAAATAGAAGGATGATGAAAATGAAAACACGTATAGTCAGCTCAGTAACAACAACACTATTGCTAGGTT (double strand) [hla promoter fragment]", "values": [
      {"measurement": "binding", "result": "binds"}
    ]}
  ]
}
